Experimental data as given in US20230303667A1.

B1: 5.6.c2618 (antibody, V domains shown)
VH: QVQLVQSGAEVKKPGASVNLSCKGSGYSFRTYYIHWVRQAPGQGLEWMGIINSSGGGTTYAQKFQGRVTMTRDTSTSTVYMELRSLKYEDTAMYYCARDRFPTVSGEPFAMDVWGQGTTVTVSS
VL: EVVLTQSPVTLSLSPGERATLSCRASQSVSGYLAWYQQKPGQVPRLLIYDTSNRATGIPARFSGSGSGTDFTLTISTIEPEDFAVYYCQQRSKWGVTFGGGTKVDIK
B2: 2.10.1E06 (antibody, V domains shown)
VH: EVQLVESGGGLIQPGGSLRLSCTASGFTFSKFAMSWVRQAPGRGLEWISYISGGSKTKYYADSVRGRFTISRDNAKGSLFLQMNSLRAEDTAIYFCAKKGWQSTFLGMDYFYGMDVWGKGTTVTVSS
VL: EIVLTQSPGTLSLSPGERATLSCRASQSVTSNYLAWYQQKPGQAPRVLIYGASSRATGIPDRFSGSGSGTDFTLTISRLEPEDFAVYYCQQFGASPPYSFGQGTKVEIK
B3: 9.6.3A06 (antibody, V domains shown)
VH: EVQLLESGGGLVKPGGSLRLSCAASGFTFNEYMMNWVRQPPGKGLEWVSSISGTSTYINYADSVKGRFTISRDNAKNSLYLQMNSLRSDDTAMYYCARGSTGGYWGQGTLITVSS
VL: DIVMTQTPLSSAVTLGQPASISCRSSQRLVHSDGNTYLSWLHQRPGQPPRLLIYKVSLRFSGVPDRFSGSGAGTDFTLKISRVEAEDVGIYYCMQATQFPLTFGGGTKVEIK
B4: 9.6.1A09 (antibody, V domains shown)
VH: EVQLVESGGGLVQPGGSLRLSCAASGFTFRSYDMDWFRQSTGKGLEWVSAIGSAGDTYYTDSVKGRFTISRENGKNSLYLQMNSLRAGDTAVYYCARARFGDNVFDLWGRGTLVTVSS
VL: DIVMTQSPDSLAVSLGERASINCKSSQSVLSSSNTKNYLAWYQHKPGQPPKLLIYWASTRESGVPDRFSGSGSGTDFTLTISSLQPEDVAVYYCQQYYGAPYTFGQGTKVEIK
B5: 5.1.7D03 (antibody, V domains shown)
VH: EVQLVQSGGGLAQPGGSLRLSCAASGFTFRSYDMHWVRQVTGKGLEWVSAIGTAGDTYYTGSVKGRFTISRENDKSSLYLQMSSLRGEDTAVYYCARAAFGSHYFDYWGQGTLVTVSS
VL: EIVLTQSPGTLSLSPGERAALSCRASQSVSGNYFAWYQQKSGQAPRLLISAASSRATGVPDRFSASGSGTDFTLTISRLEPEDSAVYYCQQYGSSPLTFGQGTKVEIK
B6: 5.1.13G03 (antibody, V domains shown)
VH: QVQLQESGPGLVKPSGTLSLTCAVSGGSISSTNWWSWVRQPPGKGLEWIGEIYHSGSTNYNPSLKSRVTISLDKSKDQFSLKLSSVTAADTAVYYCAYSNTWTGGWGQGTLVTVSS
VL: DIQMTQSPSSLSASVGDRVTITCRASQSISSYLNWYQQKPGKAPKVLIYSAFSLQNGVPSRFSGSGSGTDFTLTISSLQPEDFATYYCQQSYSTPRTFGQGTKVEIK

These binders were tested against Ebola Zaire (Kikwit strain) glycoprotein (Ebola Zaire (Kikwit strain)) (UniProt P87666) (assay: cell-based or functional assay).
Chain of Ebola Zaire (Kikwit strain) glycoprotein (Ebola Zaire (Kikwit strain)) (P87666 33-676 limits assumed): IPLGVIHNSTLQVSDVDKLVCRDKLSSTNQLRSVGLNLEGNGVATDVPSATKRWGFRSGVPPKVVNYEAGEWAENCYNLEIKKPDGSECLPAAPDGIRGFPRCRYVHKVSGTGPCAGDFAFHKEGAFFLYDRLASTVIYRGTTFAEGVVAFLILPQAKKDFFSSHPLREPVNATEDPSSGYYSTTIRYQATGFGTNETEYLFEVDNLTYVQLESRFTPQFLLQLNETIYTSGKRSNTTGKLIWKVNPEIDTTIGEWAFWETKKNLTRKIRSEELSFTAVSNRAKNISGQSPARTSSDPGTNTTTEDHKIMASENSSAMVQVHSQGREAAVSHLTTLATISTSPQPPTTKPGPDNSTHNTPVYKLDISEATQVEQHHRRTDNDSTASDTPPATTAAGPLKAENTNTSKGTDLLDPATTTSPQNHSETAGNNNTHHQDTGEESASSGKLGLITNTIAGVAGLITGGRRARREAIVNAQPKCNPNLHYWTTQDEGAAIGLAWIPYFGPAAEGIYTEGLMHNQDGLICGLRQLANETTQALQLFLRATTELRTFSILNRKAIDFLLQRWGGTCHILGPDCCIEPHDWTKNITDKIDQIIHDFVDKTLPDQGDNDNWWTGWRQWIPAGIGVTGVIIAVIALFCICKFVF

In order of falling PRNT50 (ug/ml) for Ebola Zaire (Kikwit strain):
1. B5  1.57 µg/mL
2. B2  0.781 µg/mL
3. B4  0.781 µg/mL
4. B6  0.0978 µg/mL
5. B3  0.0488 µg/mL
6. B1  0.0061 µg/mL
